Data on three molecules can be found in patent publication US20210246200A1 (UNIVERSIT T Z RICH, published 2021).

In one assay the target is T1, human IL-2 (wildtype) (human, UniProt P60568 21-153).
T1 construct: also called IL-2 (WT); IL-2 wt
Briefly: SET assay (solution equilibration titration, MSD).

Assay [1] concerns the target T2, Proleukin® (aldesleukin) (human, UniProt P60568 21-153, limits assumed).
T2 construct: Variant of human wt IL-2 with C145S (C125S on mature IL-2); also called IL-2 (Proleukin®); human IL-2 (Proleukin)
Briefly: ELISA, coated Proleukin, mean of 3 experiments.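 Further: binding of anti-human IL-2 antibodies, tested as an 11-point dilution series for 2 hours, to plate-bound IL-2, detected via streptavidin-HRP with absorbance read at 450 nm.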 Background: An ELISA detects its analyte on a solid surface through an enzyme-linked reagent.
Protocol: ELISA plates (Corning) were coated with human IL-2 (Proleukin) at 10 μg/mL in PBS overnight at 4° C. The plates were washed 6 times with PBST, then blocked in 1% BSA/PBST for 2 hours. After blocking and washing, the anti-human IL-2 antibodies were added on the plate in an 11-point dilution series in 1% BSA/PBST and incubated for 2 hours. […] The plates were then washed again and incubated with Streptavidin-Horseradish Peroxidase in 1% BSA/PBS for 45 minutes. After washing, the substrate (R&D Systems) was added into the plates and the enzymatic reaction was stopped after 3 minutes by adding Stop Solution. The plates were read by a microplate reader at 450 nm with a wavelength correction set to 540 nm.

Assay [2] concerns the target T2, Proleukin® (aldesleukin). Briefly: SET assay (solution equilibration titration, MSD).
Protocol: A 22 serial 2n dilution of the antigen was prepared in sample buffer. A constant concentration of the antibody was added. […] A volume of 60 μl of each antigen:antibody mix was distributed in duplicates to a 384-well polypropylene microtiter plate (PP MTP). Sample buffer served as negative control and a sample containing no antigen as positive control (Bₘₐₓ). The plate was sealed and incubated overnight (o/n) at room temperature (RT). A 384-well standard MSD array plate was coated o/n with 2 μg/ml of IL-2. After three times washing with washing buffer, the plate was blocked with 50 μl/well blocking buffer for 1 hour at RT. After washing, a volume of 30 μl/well of the antigen:antibody mix was transferred from the PP MTP to the coated MSD plate and incubated for 20 min at RT. After an additional wash step, 30 μl of detection antibody (diluted 1:2000) in sample buffer was added to each well and incubated for 30 min at RT. The MSD plate was washed and 35 μl/well of read buffer was added and incubated for 5 min. ECL signals were measured with the MSD SECTOR Imager 6000.

T2 sequence (P60568 other isoform, or with tags, fused parts or gaps limits assumed): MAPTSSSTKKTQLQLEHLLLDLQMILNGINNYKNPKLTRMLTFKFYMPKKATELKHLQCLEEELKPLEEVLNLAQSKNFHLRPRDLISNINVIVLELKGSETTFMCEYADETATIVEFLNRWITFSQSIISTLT
T1 sequence (P60568 21-153 limits assumed): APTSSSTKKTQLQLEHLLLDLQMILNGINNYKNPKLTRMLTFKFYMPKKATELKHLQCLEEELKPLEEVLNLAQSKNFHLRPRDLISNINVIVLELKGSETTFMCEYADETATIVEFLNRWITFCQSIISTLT

B1: 104349 (antibody, V domains shown)
VH: EVQLVQSGAEVKKPGESLKISCKGSGYAFTNYLIEWVRQMPGKGLEWMGVINPGSGGTNYNEKFKGQVTISADKSISTAYLQWSSLKASDTAMYYCARWRGDGYYAYFDVWGQGTTVTVSS
VL: DIVLTQSPLSLPVTLGQPASISCKASQSVDYDGDSYMNWYQQRPGQSPRLLIYAASNLESGVPDRFSGSGSGTDFTLKISRVEAEDVGVYYCQQSNEDPYTFGGGTKVEIK
notes: VH5/VK2
Usually EC50 stands for the midpoint of the concentration-response curve. Lower therefore signals an effect from little substance. As a reminder, the Kd is the free concentration of one partner at which half of the binding sites on the other are occupied at equilibrium, for simple one-to-one binding. Turning to B1, the binding result with human IL-2 (wildtype) was “binds”. In addition, the EC50 with Proleukin® (aldesleukin) [1] came to 300 pM. For the same molecule, the Kd with Proleukin® (aldesleukin) [2] turned out to be 82 pM.

B2: 104347 (antibody, V domains shown)
VH: QVQLVESGGGVVQPGRSLRLSCAASGYTFSSYLIEWVRQAPGKGLEWVAVINPGSGGTNYADSVKGRFTISADKSKNTAYLQMNSLRAEDTAVYYCARWRGDGYYAYFDVWGQGTTVTVSS
VL: EIVLTQSPATLSVSPGERATLSCRASQSVSYDGDSYMNWYQQKPGQAPRLLIYAASNLASGIPARFSGSGSGTEFTLTISSLQSEDAAVYYCQQSNEDPYTFGGGTKVEIK
notes: VH3s/VK3s
B2: the binding result in the assay with human IL-2 (wildtype) is given as “binds”. The EC50 with Proleukin® (aldesleukin) [1] was 39000 pM. Binding with Proleukin® (aldesleukin) [2] was put at a Kd of 10000 pM.

B3: 104343 (antibody, human IgG1, kappa, N297A, V domains shown)
VH: QVQLVQSGAEVKKPGSSVKVSCKASGYAFTNYLIEWVRQAPGQGLEWMGVINPGSGGTNYNEKFKGRVTITADKSTSTAYMELSSLRSEDTAVYYCARWRGDGYYAYFDVWGQGTTVTVSS
VL: DIVLTQSPLSLPVTLGQPASISCKASQSVDYDGDSYMNWYQQRPGQSPRLLIYAASNLESGVPDRFSGSGSGTDFTLKISRVEAEDVGVYYCQQSNEDPYTFGGGTKVEIKR
notes: VH1/VK2, human IgG1 N297A
For B3, the binding result in the assay with human IL-2 (wildtype) is on record as “binds”. This molecule also registered an EC50 in the assay with Proleukin® (aldesleukin) [1] of 300 pM. Further, in the assay with Proleukin® (aldesleukin) [2], the Kd stood at 75 pM.
